{
  "source": "paper PMC8184587",
  "key": {"BRM AT (AT-hook alone)": {"molecular_target": "T1, BRM AT (AT-hook alone) (Homo sapiens, UniProt P51531 1358-1377)", "T1 chain": "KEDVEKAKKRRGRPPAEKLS", "experiment": "NMR"}, "ATDGDP-L-BD": {"molecular_target": "ATDGDP-L-BD (Homo sapiens, UniProt P51531-2 1358-1490, R1368D;R1370D)", "experiment": "NMR"}, "ATGGGP-L-BD": {"molecular_target": "ATGGGP-L-BD (Homo sapiens, UniProt P51531-2 1358-1490, R1368G;R1370G)", "experiment": "NMR"}, "BRM AT-L-BD WT (BRM-B) [1]": {"molecular_target": "T2, BRM AT-L-BD WT (BRM-B) (Homo sapiens, UniProt P51531-2 1358-1490)", "experiment": "NMR"}, "AT-LANAA-BD": {"molecular_target": "AT-LANAA-BD (Homo sapiens, UniProt P51531-2 1358-1490, P1378A;P1380A;P1381A)", "experiment": "fluorescence anisotropy"}, "BRM AT-L-BD WT (BRM-B) [2]": {"molecular_target": "T2, BRM AT-L-BD WT (BRM-B)", "experiment": "fluorescence anisotropy"}},
  "data": [
    {"binder": "10 bp NMR dsDNA (dsDNA) DNA 1: CTCAATTGGT DNA 2: ACCAATTGAG", "values": [
      {"measurement": "Kd", "setting": "BRM AT (AT-hook alone)", "result": "220 ± 30", "unit": "µM"},
      {"measurement": "Kd", "setting": "ATDGDP-L-BD", "result": "410 ± 70", "unit": "µM"},
      {"measurement": "Kd", "setting": "ATGGGP-L-BD", "result": "130 ± 30", "unit": "µM"},
      {"measurement": "Kd", "setting": "BRM AT-L-BD WT (BRM-B) [1]", "result": "~3", "unit": "µM"}
    ]},
    {"binder": "DNA.FA 12 bp dsDNA (dsDNA) DNA 1: CCTCAATTGGTC DNA 2: GACCAATTGAGG", "values": [
      {"measurement": "Kd", "setting": "AT-LANAA-BD", "result": "4 ± 1", "unit": "µM"},
      {"measurement": "Kd", "setting": "BRM AT-L-BD WT (BRM-B) [2]", "result": "8 ± 1", "unit": "µM"}
    ]}
  ]
}
